Read-outs that look alike come from different tables or passages of the source.
Experiments:
Assay in all cases: SPR
[1] = target: T1, interleukin-6 (IL-6) (human, UniProt P05231 30-212)
[2] = target: T1, interleukin-6 (IL-6); remark: listed apart in the source
[3] = target: T2, soluble IL-6 receptor (sIL-6R) (human (from the printed accession …, UniProt P08887 20-355))
T2 chain: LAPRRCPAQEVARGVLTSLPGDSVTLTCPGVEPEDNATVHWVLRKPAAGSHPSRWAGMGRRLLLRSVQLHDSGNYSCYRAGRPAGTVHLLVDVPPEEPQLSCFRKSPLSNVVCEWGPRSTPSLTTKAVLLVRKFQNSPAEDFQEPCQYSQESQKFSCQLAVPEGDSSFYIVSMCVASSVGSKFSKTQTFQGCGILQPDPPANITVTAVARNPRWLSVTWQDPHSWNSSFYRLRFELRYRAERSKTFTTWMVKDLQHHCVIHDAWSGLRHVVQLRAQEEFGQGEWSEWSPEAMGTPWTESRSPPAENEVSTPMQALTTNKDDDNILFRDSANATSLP

T1 sequence (P05231 30-212): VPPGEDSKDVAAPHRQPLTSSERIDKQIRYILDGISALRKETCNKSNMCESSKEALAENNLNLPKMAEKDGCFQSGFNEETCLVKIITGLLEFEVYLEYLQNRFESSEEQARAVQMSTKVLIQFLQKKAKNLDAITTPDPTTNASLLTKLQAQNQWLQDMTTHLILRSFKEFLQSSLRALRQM

B1: siltuximab-TGN 1:1 (antibody, V domains shown)
VH: EVQLVESGGKLLKPGGSLKLSCAASGFTFSSFAMSWFRQSPEKRLEWVAEISSGGSYTYYPDTVTGRFTISRDNAKNTLYLEMSSLRSEDTAMYYCARGLWGYYALDYWGQGTSVTVSS
VL: QIVLIQSPAIMSASPGEKVTMTCSASSSVSYMYWYQQKPGSSPRLLIYDTSNLASGVPVRFSGSGSGTSYSLTISRMEAEDAATYYCQQWSGYPYTFGGGTKLEIK
modifications: Tris-GalNAc-PEG5 (TGN) on accessible primary amines (lysines), not site-specific; coupling ratio 1:1; GPR = 0.2 for the antibody | Tris-GalNAc-PEG5 (TGN) on accessible primary amines (lysines), not site-specific; coupling ratio 1:1; GPR = 0.2 for the antibody
Kd [1]: < 0.019 nM

B2: siltuximab-TGN 1:5 (antibody, V domains shown)
VH: B1 VH
VL: B1 VL
modifications: Tris-GalNAc-PEG5 (TGN) on accessible primary amines (lysines), not site-specific; coupling ratio 1:5 | Tris-GalNAc-PEG5 (TGN) on accessible primary amines (lysines), not site-specific; coupling ratio 1:5
Kd [1]: < 0.027 nM

B3: siltuximab-TGN 1:10 (antibody, V domains shown)
VH: B1 VH
VL: B1 VL
modifications: Tris-GalNAc-PEG5 (TGN) on accessible primary amines (lysines), not site-specific; coupling ratio 1:10 | Tris-GalNAc-PEG5 (TGN) on accessible primary amines (lysines), not site-specific; coupling ratio 1:10
Kd [1]: < 0.036 nM

B4: siltuximab (antibody, V domains shown)
VH: B1 VH
VL: B1 VL
Kd [1]: < 0.022 nM

B5: sIL-6R-TGN 1:1 (receptor)
chain: T2 chain
modifications: Tris-GalNAc-PEG5 (TGN) on accessible primary amines (lysines), not site-specific; coupling ratio 1:1; GPR could not be determined
Kd [2]: 166 nM

B6: sIL-6R-TGN 1:10 (receptor)
chain: T2 chain
modifications: Tris-GalNAc-PEG5 (TGN) on accessible primary amines (lysines), not site-specific; coupling ratio 1:10; GPR could not be determined
Kd [2]: 428 nM

B7: sIL-6R-TGN 1:5 (receptor)
chain: T2 chain
modifications: Tris-GalNAc-PEG5 (TGN) on accessible primary amines (lysines), not site-specific; coupling ratio 1:5; GPR could not be determined
Kd [2]: 230 nM

B8: tocilizumab-TGN 1:10 (antibody, V domains shown)
VH: QVQLQESGPGLVRPSQTLSLTCTVSGYSITSDHAWSWVRQPPGRGLEWIGYISYSGITTYNPSLKSRVTMLRDTSKNQFSLRLSSVTAADTAVYYCARSLARTTAMDYWGQGSLVTVSS
VL: DIQMTQSPSSLSASVGDRVTITCRASQDISSYLNWYQQKPGKAPKLLIYYTSRLHSGVPSRFSGSGSGTDFTFTISSLQPEDIATYYCQQGNTLPYTFGQGTKVEIK
modifications: Tris-GalNAc-PEG5 (TGN) on accessible primary amines (lysines), not site-specific; coupling ratio 1:10; GPR 4.75 for the antibody | Tris-GalNAc-PEG5 (TGN) on accessible primary amines (lysines), not site-specific; coupling ratio 1:10; GPR 4.75 for the antibody
Kd [3]: 0.212 nM

B9: tocilizumab (antibody, V domains shown)
VH: B8 VH
VL: B8 VL
Kd [3]: 0.068 nM

B10: tocilizumab-TGN 1:5 (antibody, V domains shown)
VH: B8 VH
VL: B8 VL
modifications: Tris-GalNAc-PEG5 (TGN) on accessible primary amines (lysines), not site-specific; coupling ratio 1:5; GPR 2.51 for the antibody | Tris-GalNAc-PEG5 (TGN) on accessible primary amines (lysines), not site-specific; coupling ratio 1:5; GPR 2.51 for the antibody
Kd [3]: 0.093 nM

B11: tocilizumab-TGN 1:1 (antibody, V domains shown)
VH: B8 VH
VL: B8 VL
modifications: Tris-GalNAc-PEG5 (TGN) on accessible primary amines (lysines), not site-specific; coupling ratio 1:1; GPR = 0.35 for the antibody | Tris-GalNAc-PEG5 (TGN) on accessible primary amines (lysines), not site-specific; coupling ratio 1:1; GPR = 0.35 for the antibody
Kd [3]: < 0.038 nM

B12: tocilizumab-TGN 1:25 (antibody, V domains shown)
VH: B8 VH
VL: B8 VL
modifications: Tris-GalNAc-PEG5 (TGN) on accessible primary amines (lysines), not site-specific; coupling ratio 1:25; GPR of 15.36 for the antibody | Tris-GalNAc-PEG5 (TGN) on accessible primary amines (lysines), not site-specific; coupling ratio 1:25; GPR of 15.36 for the antibody
Kd [3]: 0.328 nM

Source: publication PMC13083842 (2026)
